Positions count from the first letter of the chain named.
What was measured:
[1] = molecular target: T1, CTLA-4-hFc (immunogen A; hFc-labeled CTLA-4 extracellular domain protein) (human, UniProt P16410 36-161); test: ELISA, coated CTLA-4-hFc, competitor biotin-B7.1-hFc
T1 construct: range 36-161; Made in HEK293 cells, purified on protein A; also called CLTA-4-hFc; CTLA-4 protein; not shown: human IgG Fc fragment (hFc) of the pCpC vector
T1 sequence (looked up): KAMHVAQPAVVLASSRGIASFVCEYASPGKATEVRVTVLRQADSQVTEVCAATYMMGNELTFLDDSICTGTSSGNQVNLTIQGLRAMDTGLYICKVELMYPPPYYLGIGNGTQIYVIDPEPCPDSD
Method: (§1) CTLA-4 extracellular domain protein (CTLA-4-hFc) was diluted with PBS to a final concentration of 1.0 μg/mL, and then added to a 96-well ELISA plate as 100 μl per well. The plate was covered with a plastic film and incubated overnight at 4° C. The plate was washed twice with plate washing solution [PBS containing 0.01% (v/v) Tween 20] on the next day, and added with blocking solution [PBS containing 0.01% (v/v) Tween 20 and 1% (w/w) BSA] and blocked at room temperature for 2 hours. […] After 2 hours, the plate was washed 3 times with a plate washing solution [PBS containing 0.01% (v/v) Tween 20]. HRP (horseradish peroxidase) labeled avidin diluent (purchased from Sigma) was added 100 microliters per well, and after the plate was incubated for 2 hours at 37° C., it was washed with plate washing solution [PBS containing 0.01% (v/v) Tween 20] for 3 times. […] TMB substrate was added to each well. After incubated at room temperature for 30 minutes, the plate was added with […] stop solution (1.0N HCl) to each well. An ELISA plate reader (SpectraMax 384plus, Molecular Device) was used to read the A450 nm value.

[2] = molecular target: T2, human CTLA-4 (Y201V), full length, on transfected cells (human, UniProt P16410 36-223); test: FACS, CHOK1-hCTLA-4 cells
T2 construct: whole, on cells; also called hCTLA-4; HEK293-hCTLA-4 (Y201V)
T2 sequence (looked up): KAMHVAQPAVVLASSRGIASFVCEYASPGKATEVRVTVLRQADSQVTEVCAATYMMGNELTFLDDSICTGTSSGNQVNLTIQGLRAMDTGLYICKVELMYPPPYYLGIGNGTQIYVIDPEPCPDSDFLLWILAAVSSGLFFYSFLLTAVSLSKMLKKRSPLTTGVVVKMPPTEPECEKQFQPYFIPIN

[3] = molecular target: T1, CTLA-4-hFc (immunogen A; hFc-labeled …); test: competition ELISA: CTLA-4-hFc coated, antibody titrated, blocked ligand biotin-labeled B7.2-hFc, HRP-avidin, A450, inhibition (%)
Method: as §1

[4] = molecular target: T1, CTLA-4-hFc (immunogen A; hFc-labeled …); test: ELISA, coated CTLA-4-hFc, competitor biotin-B7.2-hFc
Method: as §1

[5] = molecular target: T3, monkey CTLA-4, full length, on transfected HEK293 cells (monkey); test: FACS, 293F-cCTLA-4 cells
T3 construct: whole, on cells; also called cCTLA-4; HEK293-cCTLA-4
From the text: (§2) The pIRES plasmid with the monkey-derived CTLA-4 full-length gene was transfected into the HEK293 cell line to construct a HEK293 stable cell line containing monkey CTLA-4 (herein referred to as HEK293-cCTLA-4 stable cell line), wherein the database accession number of the monkey CTLA-4 nucleotide sequence is XM_005574014.1. The HEK293-hCTLA-4 stable cell line and HEK293-cCTLA-4 stable cell line were expanded in a T-75 cell culture flask to a 90% confluence. The medium was aspirated, and the cells were washed with HBSS buffer (Hanks Balanced Salt Solution, purchased from Invitrogen) twice, then treated with an enzyme-free cell dissociation fluid (Versene solution, purchased from Life technology) and the cells were collected. The cells were washed with HBSS buffer twice. After counted, the cells were diluted with HBSS buffer to 2×10⁶ cells per ml, added with 1% goat serum blocking solution, wherein the percentage was the mass percantage. Cells were incubated on ice for 30 minutes, then washed twice with HBSS buffer by centrifugation. The collected cells were suspended in the FACS buffer (HBSS containing 1% BSA, wherein the percentage was the mass percantage) to 2×10⁶ cells/ml, added as 100 microliters per well to a 96-well FACS reaction plate, added with 100 microliters per well of the purified CTLA-4 antibody sample to be tested, incubated on ice for 2 hours. The plate was washed twice with the FACS buffer by centrifugation, added with 100 microliters of fluorescent (Alexa 488)-labeled secondary antibodies (purchased from Invitrogen) per well, and incubated on ice for 1 hour. The plate was washed 3 times with FACS buffer by centrifugation, added with 100 μl fixative solution [4% (v/v) Paraformaldehyde] per well to suspend the cells. 10 minutes later, it was washed 2 times with FACS buffer by centrifugation. The cells were suspended with 100 microliters of FACS buffer, FACS (FACS Calibur, purchased from BD) was used for detection and the results were analyzed.

[6] = molecular target: T1, CTLA-4-hFc (immunogen A; hFc-labeled …); test: competition ELISA: CTLA-4-hFc coated, antibody titrated, blocked ligand biotin-labeled B7.1-hFc, HRP-avidin, A450, inhibition (%)
Method: as §1

[7] = molecular target: T4, recombinant His-labeled hCTLA-4 ECD protein (human, UniProt P16410 36-161); test: SPR Biacore T200, antibody captured by anti-human Fc, 1:1 model
T4 construct: extracellular domain; also called human CTLA-4 ECD; not shown: His label
T4 sequence (looked up): T1 sequence (looked up)
Method: Anti-human Fc IgG was fixed on flow cell 1 and 2. HBS-EP+ (10 mmol/L HEPES, 150 mmol/L NaCl, 3 mM EDTA, 0.05% P20, pH 7.4) was used as the running buffer, and anti-human Fc IgG was fixed using the fixing wizard template. The flow cells 1 and 2 connected in series with S CM5 sensor chip were activated with freshly mixed 50 mmol/L NHS and 200 mmol/L EDC. Anti-human Fc IgG was diluted to […] with 10 mmol/L NaAC (pH 4.5) and injected into activated flow cells 1 and 2. The remaining active coupling sites were blocked with 1 mol/L ethanolamine.
The recombinant His-labeled hCTLA-4 ECD protein was diluted to 50 nmol/L, and then serially diluted 4 times with HBS-EP+ buffer at a 2-fold ratio. […] Each antibody was injected into the CM5 sensor flow cell 2 at a flow rate of 10 μL/min to achieve a response of 230 RU. Then the prepared His-labeled hCTLA-4ECD protein was injected into flow cells 1 and 2 at a flow rate of 30 μL/min for 180 seconds. The buffer flow was maintained for 400 seconds for dissociation measurement (30 μL/min). To remove the tested antibody from the surface, 10 mmol/L glycine-HCl pH1.5 was injected for 20 seconds (30 μL/min). Flow cell 1 was used as a reference flow cell. The above steps were repeated for each concentration of serially diluted His-labeled CTLA-4ECD protein. The KD value of each antibody was evaluated using Biacore T200 evaluation software 1.0, and a 1:1 binding model was used to fit the data.

[8] = molecular target: T5, CTLA-4 on human T lymphocytes (PBMC, CD3+ T cells) (human, UniProt P16410 36-223); test: cell-based or functional assay
T5 sequence (looked up): T2 sequence (looked up) with V166Y

[9] = molecular target: T2, human CTLA-4 (Y201V), full length, on …; test: FACS, human CTLA-4 expressing cells
[10] = molecular target: T3, monkey CTLA-4, full length, on …; test: FACS, monkey CTLA-4 expressing cells
From the text: as §2

[11] = molecular target: T1, CTLA-4-hFc (immunogen A; hFc-labeled …); test: blocking assay, CTLA-4 protein, competitor B7.2
Method: as §1

B1: 40C4C6 (chimeric antibody purified from hybridoma supernatant) (antibody, V domains shown)
VH: QVQLVESGGGVVQPGRSLRLSCAASGFTFSSYGMHWVRQAPGKGLEWVAVIWYDGRNKYYADSVKGRFTISRDNSKNTLYLQMNSLRAEDTAVYYCARASGSYSYYFDYWGQGTLVTVSS
VL: DIQMTQSPSSLSASVGGRVTITCRASQSISSFLNWYQHELGKAPKLLIYGASSLQSGVPSRFSGSGSGTDFTLTISSLQPEDFATYYCQQTYSTPFTFGPGTKVDIK
notes: also called mAb09; mAb009
- Inhibition rate (%) at 0.00091 nM [1]: 0%
- Inhibition rate (%) at 0.091 nM [1]: 12.7%
- Inhibition rate (%) at 0.274 nM [1]: 40%
- Inhibition rate (%) at 0.823 nM [1]: 63.1%
- Inhibition rate (%) at 2.5 nM [1]: 75.2%
- Inhibition rate (%) at 7.4 nM [1]: 80.7%
- Inhibition rate (%) at 22.2 nM [1]: 87.5%
- Inhibition rate (%) at 66.7 nM [1]: 89.7%
- MFI at 0.07 nM [2]: 43.3
- MFI at 0.67 nM [2]: 146
- MFI at 6.67 nM [2]: 403
- MFI at 66.67 nM [2]: 449
- IC50 (read off the curve) [3]: ~0.5 nM
- Inhibition rate (%) at 0.00091 nM [4]: 0%
- Inhibition rate (%) at 0.091 nM [4]: 5.3%
- Inhibition rate (%) at 0.274 nM [4]: 26.4%
- Inhibition rate (%) at 0.823 nM [4]: 53.3%
- Inhibition rate (%) at 2.5 nM [4]: 66.6%
- Inhibition rate (%) at 7.4 nM [4]: 76.6%
- Inhibition rate (%) at 22.2 nM [4]: 84.6%
- Inhibition rate (%) at 66.7 nM [4]: 88.7%
- MFI at 0.000128 nM [5]: 2.4
- MFI at 0.0128 nM [5]: 23
- MFI at 0.064 nM [5]: 68.6
- MFI at 0.32 nM [5]: 219
- MFI at 1.6 nM [5]: 421
- MFI at 8 nM [5]: 619
- MFI at 40 nM [5]: 626
- MFI at 200 nM [5]: 643
- IC50 (read off the curve) [6]: ~0.3 nM

B2: 97B8E1 fully human CTLA-4 antibody (human IgG1, kappa) (antibody, V domains shown)
VH: QVQLVESGGGVVQPGRSLRLSCAASGFTFSSYVMHWVRQAPGKGLEWVAVIWSDGRNKYYTDSVKGRFTISRDNSKNTLYLQMSSLRAEDTAVYYCARSGIALAGNAFDIWGQGTMVTVSS
VL: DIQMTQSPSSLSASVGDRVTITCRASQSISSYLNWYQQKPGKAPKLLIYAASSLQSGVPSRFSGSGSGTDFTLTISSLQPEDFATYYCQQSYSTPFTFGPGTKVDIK
notes: also called mAb50; mAb050
- Kd [7]: 3.5 nM
- koff [7]: 0.00151 s⁻¹
- kon [7]: 431000 M⁻¹ s⁻¹
- IL-2 secretion, pg/ml, at 0.13 ug/ml, N = 1 [8]: 1570 pg/mL
- IL-2 secretion, pg/ml, at 0.13 ug/ml, N = 2 [8]: 1450 pg/mL
- IL-2 secretion, pg/ml, at 0.37 ug/ml, N = 1 [8]: 2480 pg/mL
- IL-2 secretion, pg/ml, at 0.37 ug/ml, N = 2 [8]: 1860 pg/mL
- IL-2 secretion, pg/ml, at 1.1 ug/ml, N = 1 [8]: 3460 pg/mL
- IL-2 secretion, pg/ml, at 1.1 ug/ml, N = 2 [8]: 2560 pg/mL
- IL-2 secretion, pg/ml, at 3.3 ug/ml, N = 1 [8]: 4240 pg/mL
- IL-2 secretion, pg/ml, at 3.3 ug/ml, N = 2 [8]: 4200 pg/mL
- IL-2 secretion, pg/ml, at 10 ug/ml, N = 1 [8]: 6650 pg/mL
- IL-2 secretion, pg/ml, at 10 ug/ml, N = 2 [8]: 5210 pg/mL
- IL-2 secretion, pg/ml, at 30 ug/ml, N = 1 [8]: 7650 pg/mL
- IL-2 secretion, pg/ml, at 30 ug/ml, N = 2 [8]: 8210 pg/mL
- MFI at 0.000128 nM [9]: 3
- MFI at 0.0128 nM [9]: 31
- MFI at 0.064 nM [9]: 85
- MFI at 0.32 nM [9]: 229
- MFI at 1.6 nM [9]: 491
- MFI at 8 nM [9]: 727
- MFI at 40 nM [9]: 902
- MFI at 200 nM [9]: 886
- MFI at 0.000128 nM [10]: 2
- MFI at 0.0128 nM [10]: 36
- MFI at 0.064 nM [10]: 97
- MFI at 0.32 nM [10]: 270
- MFI at 1.6 nM [10]: 504
- MFI at 8 nM [10]: 757
- MFI at 40 nM [10]: 810
- MFI at 200 nM [10]: 784
- % Block at 0.000128 nM [11]: 0%
- % Block at 0.0128 nM [11]: 26.3%
- % Block at 0.064 nM [11]: 42.8%
- % Block at 0.32 nM [11]: 82.3%
- % Block at 1.6 nM [11]: 98.7%
- % Block at 8 nM [11]: 99%
- % Block at 40 nM [11]: 99%
- % Block at 200 nM [11]: 99.1%
